Experimental data published in patent publication US20160304571.

B1: USP5 (protein)
chain: MAELSEEALLSVLPTIRVPKAGDRVHKDECAFSFDTPESEGGLYICMNTFLGFGKQYVERHFNKTGQRVYLHLRRTRRPKEEDPATGTGDPPRKKPTRLAIGVEGGFDLSEEKFELDEDVKIVILPDYLEIARDGLGGLPDIVRDRVTSAVEALLSADSASRKQEVQAWDGEVRQVSKHAFSLKQLDNPARIPPCGWKCSKCDMRENLWLNLTDGSILCGRRYFDGSGGNNHAVEHYRETGYPLAVKLGTITPDGADVYSYDEDDMVLDPSLAEHLSHFGIDMLKMQKTDKTMTELEIDMNQRIGEWELIQESGVPLKPLFGPGYTGIRNLGNSCYLNSVVQVLFSIPDFQRKYVDKLEKIFQNAPTDPTQDFSTQVAKLGHGLLSGEYSKPVPESGDGERVPEQKEVQDGIAPRMFKALIGKGHPEFSTNRQQDAQEFFLHLINMVERNCRSSENPNEVFRFLVEEKIKCLATEKVKYTQRVDYIMQLPVPMDAALNKEELLEYEEKKRQAEEEKMALPELVRAQVPFSSCLEAYGAPEQVDDFWSTALQAKSVAVKTTRFASFPDYLVIQIKKFTFGLDWVPKKLDVSIEMPEELDISQLRGTGLQPGEEELPDIAPPLVTPDEPKGSLGFYGNEDEDSFCSPHFSSPTSPMLDESVIIQLVEMGFPMDACRKAVYYTGNSGAEAAMNWVMSHMDDPDFANPLILPGSSGPGSTSAAADPPPEDCVTTIVSMGFSRDQALKALRATNNSLERAVDWIFSHIDDLDAEAAMDISEGRSAADSISESVPVGPKVRDGPGKYQLFAFISHMGTSTMCGHYVCHIKKEGRWVIYNDQKVCASEKPPKDLGYIYFYQRVAS
B2: CYLD (protein)
chain: GLEIMIGKKKGIQGHYNSCYLDSTLFCLFAFSSVLDTVLLRPKEKNDVEYYSETQELLRTEIVNPLRIYGYVCATKIMKLRKILEKVEAASGFTSEEKDPEEFLNILFHHILRVEPLLKIRSAGQKVQDCYFYQIFMEKNEKVGVPTIQQLLEWSFINSNLKFAEAPSCLIIQMPRFGKDFKLFKKIFPSLELNITDLLEDTPRQCRICGGLAMYECRECYDDPDISAGKIKQFCKTCNTQVHLHPKRLNHKYNPVSLPKDLPDWDWRHGCIPCQNMELFAVLCIETSHYVAFVKYGKDDSAWLFFDSMADRDGGQNGFNIPQVTPCPEVGEYLKMSLEDLHSLDSRRIQGCARRLLCDAYMCMYQSPTMSLYK
B3: Cezanne (protein)
chain: PPSFSEGSGGSRTPEKGFSDREPTRPPRPILQRQDDIVQEKRLSRGISHASSSIVSLARSHVSSNGGGGGSNEHPLEMPICAFQLPDLTVYNEDFRSFIERDLIEQSMLVALEQAGRLNWWVSVDPTSQRLLPLATTGDGNCLLHAASLGMWGFHDRDLMLRKALYALMEKGVEKEALKRRWRWQQTQQNKESGLVYTEDEWQKEWNELIKLASSEPRMHLGTNGANCGGVESSEEPVYESLEEFHVFVLAHVLRRPIVVVADTMLRDSGGEAFAPIPFGGIYLPLEVPASQCHRSPLVLAYDQAHFSALVSMEQKENTKEQAVIPLTDSEYKLLPLHFAVDPGKGWEWGKDDSDNVRLASVILSLEVKLHLLHSYMNVKWIPLSSDAQAPLAQ
B4: BAP1 (protein)
chain: MNKGWLELESDPGLFTLLVEDFGVKGVQVEEIYDLQSKCQGPVYGFIFLFKWIEERRSRRKVSTLVDDTSVIDDDIVNNMFFAHQLIPNSCATHALLSVLLNCSSVDLGPTLSRMKDFTKGFSPESKGYAIGNAPELAKAHNSHARPEPRHLPEKQNGLSAVRTMEAFHFVSYVPITGRLFELDGLKVYPIDHGPWGEDEEWTDKARRVIMERIGLATAGEPYHDIRFNLMAVVPDRRIKYEARLHVLKVNRQTVLEALQQLIRVTQPELIQTHKSQESQLPEESKSASNKSPLVLEANRAPAASEGNHTDGAEEAAGSCAQAPSHSPPNKPKLVVKPPGSSLNGVHPNPTPIVQRLPAFLDNHNYAKSPMQEEEDLAAGVGRSRVPVRPPQQYSDDEDDYEDDEEDDVQNTNSALRYKGKGTGKPGALSGSADGQLSVLQPNTINVLAEKLKESQKDLSIPLSIKTSSGAGSPAVAVPTHSQPSPTPSNESTDTASEIGSAFNSPLRSPIRSANPTRPSSPVTSHISKVLFGEDDSLLRVDCIRYNRAVRDLGPVISTGLLHLAEDGVLSPLALTEGGKGSSPSIRPIQGSQGSSSPVEKEVVEATDSREKTGMVRPGEPLSGEKYSPKELLALLKCVEAEIANYEACLKEEVEKRKKFKIDDQRRTHNYDEFICTFISMLAQEGMLANLVEQNISVRRRQGVSIGRLHKQRKPDRRKRSRPYKAKRQ
B5: USP21 (protein)
chain: SDDKMAHHTLLLGSGHVGLRNLGNTCFLNAVLQCLSSTRPLRDFCLRRDFRQEVPGGGRAQELTEAFADVIGALWHPDSCEAVNPTRFRAVFQKYVPSFSGYSQQDAQEFLKLLMERLHLEINRRGRRAPPILANGPVPSPPRRGGALLEEPELSDDDRANLMWKRYLEREDSKIVDLFVGQLKSCLKCQACGYRSTTFEVFCDLSLPIPKKGFAGGKVSLRDCFNLFTKEEELESENAPVCDRCRQKTRSTKKLTVQRFPRILVLHLNRFSASRGSIKKSSVGVDFPLQRLSLGDFASDKAGSPVYQLYALCNHSGSVHYGHYTALCRCQTGWHVYNDSRVSPVSENQVASSEGYVLFYQLMQEPPRCL
B6: TRABID (protein)
chain: LEVDFKKLKQIKNRMKKTDWLFLNACVGVVEGDLAAIEAYKSSGGDIARQLTADEVRLLNRPSAFDVGYTLVHLAIRFQRQDMLAILLTEVSQQAAKCIPAMVCPELTEQIRREIAASLHQRKGDFACYFLTDLVTFTLPADIEDLPPTVQEKLFDEVLDRDVQKELEEESPIINWSLELATRLDSRLYALWNRTAGDCLLDSVLQATWGIYDKDSVLRKALHDSLHDCSHWFYTRWKDWESWYSQSFGLHFSLREEQWQEDWAFILSLASQPGASLEQTHIFVLAHILRRPIIVYGVKYYKSFRGETLGYTRFQGVYLPLLWEQSFCWKSPIALGYTRGHFSALVAMENDGYGNRGAGANLNTDDDVTITFLPLVDSERKLLHVHFLSAQELGNEEQQEKLLREWLDCCVTEGGVLVAMQKSSRRRNHPLVTQMVEKWLDRYRQIRPCTSLS
B7: AMSH (protein)
chain: MSDHGDVSLPPEDRVRALSQLGSAVEVNEDIPPRRYFRSGVEIIRMASIYSEEGNIEHAFILYNKYITLFIEKLPKHRDYKSAVIPEKKDTVKKLKEIAFPKAEELKAELLKRYTKEYTEYNEEKKKEAEELARNMAIQQELEKEKQRVAQQKQQQLEQEQFHAFEEMIRNQELEKERLKIVQEFGKVDPGLGGPLVPDLEKPSLDVFPTLTVSSIQPSDCHTTVRPAKPPVVDRSLKPGALSNSESIPTIDGLRHVVVPGRLCPQFLQLASANTARGVETCGILCGKLMRNEFTITHVLIPKQSAGSDYCNTENEEELFLIQDQQGLITLGWIHTHPTQTAFLSSVDLHTHCSYQMMLPESVAIVCSPKFQETGFFKLTDHGLEEISSCRQKGFHPHSKDPPLFCSCSHVTVVDRAVTITDLR
B8: A20 (protein)
chain: MAEQVLPQALYLSNMRKAVKIRERTPEDIFKPTNGIIHHFKTMHRYTLEMFRTCQFCPQFREIIHKALIDRNIQATLESQKKLNWCREVRKLVALKTNGDGNCLMHATSQYMWGVQDTDLVLRKALFSTLKETDTRNFKFRWQLESLKSQEFVETGLCYDTRNWNDEWDNLIKMASTDTPMARSGLQYNSLEEIHIFVLCNILRRPIIVISDKMLRSLESGSNFAPLKVGGIYLPLHWPAQECYRYPIVLGYDSHHFVPLVTLKDSGPEIRAVPLVNRDRGRFEDLKVHFLTDPENEMKEKLLKEYLMVIEIPVQGWDHGTTHLINAAKLDEANLPKEINLVDDYFELVQHEYKKWQENSEQGRRE
B9: ubiquitin C-terminal hydrolase-L3 (UCH-L3) (protein)
chain: MEGQRWLPLEANPEVTNQFLKQLGLHPNWQFVDVYGMDPELLSMVPRPVCAVLLLFPITEKYEVFRTEEEEKIKSQGQDVTSSVYFMKQTISNACGTIGLIHAIANNKDKMHFESGSTLKKFLEESVSMSPEERARYLENYDAIRVTHETSAHEGQTEAPSIDEKVDLHFIALVHVDGHLYELDGRKPFPINHGETSDETLLEDAIEVCKKFMERDPDELRFNAIALSAA

Biological target: Lys6-linked diubiquitin, P0CG48
Sequence (P0CG48 whole entry, looked up): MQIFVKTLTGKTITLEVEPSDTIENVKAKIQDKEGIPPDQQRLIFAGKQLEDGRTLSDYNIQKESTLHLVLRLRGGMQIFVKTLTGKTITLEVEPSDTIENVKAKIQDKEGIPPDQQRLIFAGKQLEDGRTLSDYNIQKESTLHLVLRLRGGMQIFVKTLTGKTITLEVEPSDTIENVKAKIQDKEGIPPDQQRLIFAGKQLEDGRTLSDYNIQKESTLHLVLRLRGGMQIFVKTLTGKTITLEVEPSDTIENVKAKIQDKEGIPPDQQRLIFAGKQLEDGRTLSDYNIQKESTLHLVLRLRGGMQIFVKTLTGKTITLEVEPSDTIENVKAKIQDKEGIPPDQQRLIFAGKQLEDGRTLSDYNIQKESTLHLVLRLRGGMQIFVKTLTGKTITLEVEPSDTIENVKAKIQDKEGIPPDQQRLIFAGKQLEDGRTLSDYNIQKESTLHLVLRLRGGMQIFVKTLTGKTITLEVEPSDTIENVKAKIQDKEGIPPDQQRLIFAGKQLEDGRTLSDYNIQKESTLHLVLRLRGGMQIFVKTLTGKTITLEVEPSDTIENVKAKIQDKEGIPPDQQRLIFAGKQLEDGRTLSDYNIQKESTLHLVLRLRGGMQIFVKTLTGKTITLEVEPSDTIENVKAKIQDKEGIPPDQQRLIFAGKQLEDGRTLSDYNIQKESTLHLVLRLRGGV

| Protein | cleavage in in vitro deubiquitinase assay (SDS-PAGE, silver stain) |
| --- | --- |
| B1 | rapidly cleaves all chains types tested |
| B2 | shows little or no activity against the Lys6 and Lys29 linkage |
| B3 | did not cleave Lys6-linked diubiquitin |
| B4 | failed to cleave |
| B5 | rapidly cleaves all chain types tested |
| B6 | did not cleave Lys6-linked diubiquitin |
| B7 | inactive against Lys6- and Lys29-linked diubiquitin |
| B8 | did not cleave Lys6-linked diubiquitin |
| B9 | failed to cleave |

Biological target: Lys63-linked diubiquitin (enzymatically assembled), P0CG48
Sequence (P0CG48 whole entry, looked up): as above

| Protein | cleavage in in vitro deubiquitinase assay (SDS-PAGE, silver stain) | specificity constant (kcat/Km), fluorescence anisotropy | specificity constant (kcat/Km), quantitative western blot |
| --- | --- | --- | --- |
| B1 | rapidly cleaves all chains types tested | – | – |
| B2 | efficiently cleaves its preferred Lys63 linkage | – | – |
| B5 | rapidly cleaves all chain types tested | – | – |
| B6 | cleaves Lys29 linkages more rapidly than Lys63 linkages | 1.7 (±2.0)×10^3 M^-1 s^-1 | 2.5 (±0.4)×10^3 M^-1 s^-1 |
| B7 | cleaves Lys63-linked diubiquitin under identical reaction conditions with high activity | – | – |

Biological target: Lys29-linked diubiquitin, P0CG48
Sequence (P0CG48 whole entry, looked up): as above

| Protein | cleavage in in vitro deubiquitinase assay (SDS-PAGE, silver stain) | fold better substrate than Lys63-linked diubiquitin | specificity constant (kcat/Km), quantitative western blot |
| --- | --- | --- | --- |
| B1 | rapidly cleaves all chains types tested | – | – |
| B2 | shows little or no activity against the Lys6 and Lys29 linkage | – | – |
| B3 | also did not cleave Lys29 linkages | – | – |
| B4 | failed to cleave | – | – |
| B5 | rapidly cleaves all chain types tested | – | – |
| B6 | cleaves Lys29 linkages more rapidly than Lys63 linkages | 40-fold better substrate | 1.0 (±0.2)×10^5 M^-1 s^-1 |
| B7 | inactive against Lys6- and Lys29-linked diubiquitin | – | – |
| B8 | also did not cleave Lys29 linkages | – | – |
| B9 | failed to cleave | – | – |
